Tests used:
Experiment in all cases: SPR (Biacore T200), 6B5 captured on Protein A chip; response against concentration
[1] = biological target: T1, recombinant human CD80 protein (human B7-1/CD80 protein, with His tag) (human, UniProt P33681 35-242)
T1 construct: Bought protein
T1 sequence (looked up): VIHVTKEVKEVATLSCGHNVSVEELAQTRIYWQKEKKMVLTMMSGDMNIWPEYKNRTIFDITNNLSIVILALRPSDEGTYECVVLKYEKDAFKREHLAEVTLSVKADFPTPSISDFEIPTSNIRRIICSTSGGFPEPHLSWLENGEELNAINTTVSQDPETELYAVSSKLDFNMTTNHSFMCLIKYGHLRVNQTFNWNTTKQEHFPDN
Protocol: (§1) The anti-human B7-H3 antibodies were tested for their binding capability to B7 family proteins by SPR using Biacore T200 biosensor (Biacore, US) provided with a pre-fixed Protein A sensor chip.
(§2) The dissociation was monitored for 600 sec. The data was analyzed using Biacore 8k evaluation software version 3.0, to obtain the binding responses, and the protein concentration-binding response curves were plotted, to determine the cross-reaction of the anti-human B7-H3 antibodies to the B7 family proteins.

[2] = biological target: T2, human B7-H2/ICOSLG protein, with His tag (human, UniProt O75144 19-258, limits assumed)
T2 construct: Bought protein
T2 sequence (looked up): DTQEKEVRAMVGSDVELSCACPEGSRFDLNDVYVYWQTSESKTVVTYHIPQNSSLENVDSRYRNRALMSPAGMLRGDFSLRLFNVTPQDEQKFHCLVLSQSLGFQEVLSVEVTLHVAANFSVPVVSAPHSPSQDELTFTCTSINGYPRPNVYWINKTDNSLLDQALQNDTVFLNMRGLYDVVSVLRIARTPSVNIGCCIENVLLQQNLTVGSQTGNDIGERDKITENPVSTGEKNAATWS
Protocol: as §1, §2

[3] = biological target: T3, human B7-H7/HHLA2 protein, with His tag (MALS verified) (human, UniProt Q9UM44 23-344, limits assumed)
T3 construct: Bought protein
T3 sequence (looked up): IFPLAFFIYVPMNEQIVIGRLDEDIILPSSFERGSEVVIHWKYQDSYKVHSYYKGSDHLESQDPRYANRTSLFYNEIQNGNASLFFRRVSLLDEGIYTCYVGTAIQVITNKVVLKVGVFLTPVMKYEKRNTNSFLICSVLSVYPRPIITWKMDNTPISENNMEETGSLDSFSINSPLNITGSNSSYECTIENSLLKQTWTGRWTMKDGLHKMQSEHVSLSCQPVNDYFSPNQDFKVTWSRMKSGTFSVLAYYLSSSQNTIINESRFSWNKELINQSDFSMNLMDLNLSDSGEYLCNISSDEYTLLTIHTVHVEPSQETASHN
Protocol: as §1, §2

Measured: binding result

B1: 6B5 (antibody, human IgG1, kappa, V domains shown)
VH: QVQLVESGPGLVKPSQTLSLTCTVSDGSISSGGYYWSWIRQHPGKGLEWIGYIYYSGGTYYSPSLKSRVTISVDTSKNQFSLKLTSVTAADTAVYYCARRAGYSSSFDSWGQGILVTVSS
VL: EIVLTQSPLSLPVTPGEPASISCRSSQSLLYSNGYTYLDWYLQKPGQSPQFLIYLGFNRASGVPDRFSGSGSGTDFTLKISRVEAEDVGVYYCMQGLQTPYTFGQGTKLEIKR
notes: also called 6B5-WT; Ab6B5
no binding (tested: 200 nM): all assays above
